Where “and” joins values, the source holds several entries; their conditions need not be identical. Equal entries are not always repeated.
Assays:
[1] = high-throughput enzyme assay with crude bacterial extract; assay type: biochemical; details: relative to wild-type RdpA; for Average quizalofop-P activity: average of replicates
Experimental: The high-throughput bacterial protein expression was achieved by synthesizing a recombinant DNA molecule encoding each engineered protein and cloning this into a bacterial expression vector with a C-terminal histidine tag (His-tag) operably linked to the recombinant DNA molecule. The vectors were used to transform Escherichia coli (E. coli), and bacterial expression of the engineered proteins was induced. Overnight E. coli cultures were grown in 96-well plates and the cultures were centrifuged to pellet the bacteria. The bacterial pellets were lysed by adding 100 ul lysis master mix (10 ml of Bacteria Protein Extraction Reagent (B-PER®) II (Pierce Biotechnology, Rockford, IL; cat. no. 78260); 10 ul Lysozyme (10 ug/ml final; Lysozyme American Bioanalytical, Natick, MA; cat. no. AB011780-00005); and 40 ul Benzonase® Nuclease (100 Units/ml final, Novagen, Darmstadt, Germany; cat no 71206-3)) to each well. The plates were vortexed then incubated for 30 minutes at 4° C. 400 ul of MOPS buffer (pH 6.57) was added to cach well and the debris pelleted by centrifugation. The lysate supernatant was carefully removed and used as the crude bacterial extract for subsequent enzymatic analysis.
The high-throughput herbicide degradation enzyme assay was designed to assay the enzymatic activity of the engineered proteins towards various herbicides using crude bacterial extract. The engineered protein's oxygenase activity (that is, its enzymatic activity) was measured by an end point colorimetric assay utilizing detection of phenol products through measurement of absorbance at 510 nm from 4-aminoantipyrine and potassium ferricyanide. This assay was based on the assay described in Fukomori and Hausinger, Journal of Biological Chemistry (1993) 268(32):24311-24317. Enzyme reactions were assayed in 96-well plates in a total volume of 150ul that contained: 20 mM MOPS pH 6.75, 50-200 uM NH4FeSO4, 50-200 uM sodium ascorbate, 1 mM alpha-ketoglutarate (aKG), 10 ul of E. coli cell lysate containing expressed engineered protein, and substrate (either an AOPP herbicide or phenoxy acid herbicide). […] Absorbance measurements were made on a standard laboratory spectrometer. Assays were scaled as needed to enhance throughput. Standard curves were generated using purified protein or product standards.
Using this high-throughput bacterial protein expression and enzyme assay system, activities of approximately 1200 engineered proteins were measured relative to the activity of a selected wild-type protein, RdpA. In a 96 well plate assay, there were 3 controls (crude bacterial extract without an engineered protein) and 3 positive controls (crude bacterial extract with wild-type protein). The absorbance of the wells was measured and the protein activity was calculated using the following formula:
[formula] where, Activityi is the activity of the sample, Absorbancei is the absorbance of the sample, AbsorbanceWT is the absorbance of the wells containing extract from E. coli expressing the wild-type enzyme, and AbsorbancepET is the absorbance of the wells containing extract from E. coli without an engineered protein. Activity for each unique engineered protein was measured in duplicate and was reported as an average of the two measurements.
Using the information learned from the first assays, protein engineering was then done as described previously to produce additional engineered proteins, which were tested as described in this Example 1. The results of the high-throughput enzyme assay with quizalofop-P as the substrate for five of these additional engineered proteins are provided in Table 2.

transgenic maize plants [2] = assay: inbred trait efficacy field trials (R2); assay type: in vivo; details: with or without CTP; quizalofop-P 0.16 lb ai/acre PRE, V4, V8
Experimental: Inbred trait efficacy field trials were conducted to assess tolerance to the AOPP herbicides and sensitivity to the cyclohexanediones (CHD) herbicides in an inbred background. R2 inbred plants were generated by selfing a homozygous transgenic R1 plant and collecting seed. R2 inbred plants containing MON-HT55 with or without a CTP or MON-HT51 with a CTP and were evaluated at two field locations. Herbicide treatment was 2× quizalofop-P at 0.16 lb ai/acre applied PRE (after planting but before emergence) followed by quizalofop-P at 0.16 lb ai/acre applied at V4 growth stage followed by quizalofop-P at 0.16 lb ai/acre applied at V8 growth stage. Plots were rated for crop injury 7-10 days after herbicide application on a scale of 0-100 with zero being no injury and 100 being complete crop death. All data were subjected to analysis of variance and means separated at LSD (0.05). […] To test for sensitivity to CHD herbicides, which is desirable for use in volunteer control, plants were treated with a 1× rate of clethodim (0.25 lb ai/acre) at V8 growth stage. […] The resulting F1 plants containing MON-HT55 (SEQ ID NO:13) with or without a CTP or MON-HT51 (SEQ ID NO: 3) without a CTP were evaluated at six field locations. […] This permitted the engineered protein to be evaluated in maize under high temperature and water stress conditions. […]

transgenic maize plants [3] = assay: R1 trait efficacy field trial (quizalofop-P and haloxyfop); assay type: in vivo; details: 2× quizalofop-P pre-plant, 2× haloxyfop V4, 2× quizalofop-P V8
Experimental: To assess the effect of using a CTP to target the engineered protein to the plant cell chloroplast, transgenic plants comprising a transgene insert with and without a CTP operably linked to the protein-coding sequence were compared. […] This unexpected finding was tested again in trait efficacy field trials with R1 plants comprising either MON-HT51 with or without a CTP operably linked to the protein-coding sequence or MON-HT55 with or without a CTP operably linked to the protein-coding sequence. These R1 plants were single-copy, but were still segregating. In this field trial, seed was planted in the field and treated as follows: 2× (0.16 lb ai/acre) quizalofop-P at pre-plant, 2× (0.14 lb ai/acre) haloxyfop at V4 growth stage, then 2× quizalofop-P at V8 growth stage. A higher percentage of plants comprising a CTP operably linked to the protein-coding sequence survived quizalofop-P and haloxyfop applications and had lower injury scores compared to plants not comprising a CTP operably linked to the protein-coding sequence. This confirmed the unexpected finding that a CTP operably linked to the protein-coding sequence confers higher plant tolerance to herbicide application for the engineered proteins.

transgenic maize plants [4] = assay: hybrid trait efficacy field trials (F1); assay type: in vivo; details: 2× quizalofop-P, six locations
Experimental: Inbred trait efficacy field trials were conducted to assess tolerance to the AOPP herbicides and sensitivity to the cyclohexanediones (CHD) herbicides in an inbred background. R2 inbred plants were generated by selfing a homozygous transgenic R1 plant and collecting seed. R2 inbred plants containing MON-HT55 with or without a CTP or MON-HT51 with a CTP and were evaluated at two field locations. Herbicide treatment was 2× quizalofop-P at 0.16 lb ai/acre applied PRE (after planting but before emergence) followed by quizalofop-P at 0.16 lb ai/acre applied at V4 growth stage followed by quizalofop-P at 0.16 lb ai/acre applied at V8 growth stage. Plots were rated for crop injury 7-10 days after herbicide application on a scale of 0-100 with zero being no injury and 100 being complete crop death. All data were subjected to analysis of variance and means separated at LSD (0.05). […] To test for sensitivity to CHD herbicides, which is desirable for use in volunteer control, plants were treated with a 1× rate of clethodim (0.25 lb ai/acre) at V8 growth stage. Volunteer control using a 1× rate of clethodim was 100% effective for all transgenic plants tested. Hybrid trait efficacy field trials were conducted to assess tolerance to the AOPP herbicides and sensitivity to the cyclohexanediones (CHD) herbicides in a hybrid background. F1 hybrid plants were produced by crossing an R1 inbred plant with a non-transgenic plant and collecting seed. The resulting F1 plants containing MON-HT55 (SEQ ID NO:13) with or without a CTP or MON-HT51 (SEQ ID NO: 3) without a CTP were evaluated at six field locations. The hybrid trait efficacy field trials were conducted at six locations under a range of environmental conditions, including high heat and drought conditions during the field season. This permitted the engineered protein to be evaluated in maize under high temperature and water stress conditions. Initial injury from 2× applications of quizalofop-P were higher than desired (>10% injury) at 7-10 days after application. Plants eventually grew out of most of the injury, with generally less injury from the V8 growth stage application as compared to the V4 growth stage application. Excessive injury was also noted when quizalofop-P was applied very early (for example, at VE-V2 growth stage).

B1: MON-HT51: engineered oxygenase protein, amino acid sequence SEQ ID NO:1 (protein)
chain: MHAALSPLSQRFERIAVQPLTGVLGAEITGVDLREPLSDSTWNEILDAFHTYQVIYFPGQAITNEQHIAFSRRFGPVDPVPLLKSIEGYPEVQMIRREANESGRVIGDDWHTDSSFLDAPPAAVVMRAIDVPEHGGDTGFLSMYTAYDALSDGLKKLISGLNVVHSATRVFGSLYQAQNRRFSNTSVKVMDVADGDRETVHPLVVTHPGSGRKGLYVNQVYCQRIEGMSEKESEPLLSFLFAHATKPEFTCRVRWKKDQVLVWDNLCTMHYAINDYHGQTRILHRTTVGGVRPAR
With B1 the “Replicate 1 quizalofop-P activity” value [1] was 117.02, the “Replicate 2 quizalofop-P activity” value [1] was 124.87 and the “Replicate 3 quizalofop-P activity” value [1] was 110.17. For the same molecule, the “Average quizalofop-P activity” value [1] was 117.35, the “crop injury of inbred plants” value (transgenic maize plants [2]) was “no injury” and the “Average % Herbicide Injury” value (transgenic maize plants [3]; CTP No) was 95%. For the same molecule, the “Average % Herbicide Injury” value (transgenic maize plants [3]; CTP Yes) was 35%, the “% injury after V4 spray” value (transgenic maize plants [4]; CTP Yes) was 51.8% and the “% injury after V8 spray” value (transgenic maize plants [4]; CTP Yes) was 33.3%.

B2: MON-HT55: engineered oxygenase protein, amino acid sequence SEQ ID NO:11 (protein)
chain: MHAALSPLSQRFERIAVQPLTGVLGAEITGVDLREPLDDSTWNEILDAFHTYQVIYFPGQAITNEQHIAFSRRFGPVDPVPLLKSIEGYPEVQMIRREANESGRVIGENWHTDSTFLDAPPAAVVMYAKEIPPYGGDTLFTSMYTAWETLSPTMQATIEGLNVVHSATRVFGSLYQAQNRRFSNTSVKVMDVDAGDRETVHPLVVTHPETGRKGLYVNQVYCQRIEGMSEKESEPLLSFLFAHATKPEFTCRVRWQEGDVLVWDNLCTQHYAVPDYAGKFRYLTRTTVGGVRPAR
For B2, the “Replicate 1 quizalofop-P activity” value [1] was 118.48, the “Replicate 2 quizalofop-P activity” value [1] was 99.79 and the “Average quizalofop-P activity” value [1] was 109.13. The “crop injury of inbred plants” value (transgenic maize plants [2]) was “no injury”, the “Average % Herbicide Injury” value (transgenic maize plants [3]; CTP No) was 49% and 90% and the “Average % Herbicide Injury” value (transgenic maize plants [3]; CTP Yes) was 24% and 25%. The “% injury after V4 spray” value (transgenic maize plants [4]; CTP No) was 46.8%, the “% injury after V8 spray” value (transgenic maize plants [4]; CTP No) was 78.8% and the “% injury after V4 spray” value (transgenic maize plants [4]; CTP Yes) was 42.6-48.3%. The “% injury after V8 spray” value (transgenic maize plants [4]; CTP Yes) was 14.2-38.8%.

Source: US12723255B2, “Herbicide tolerance genes and methods of use thereof” (priority 2014, dated 2026)
